From US9637764B2, “Methods of producing 7-carbon chemicals via carbon chain elongation associated with cyclohexane carboxylate synthesis” (INVISTA North America S.á r.l., priority 2012, dated 2017)

What was measured:
Assay type in all cases: biochemical
[1] = Carboxylate reductase activity assay, N7-acetyl-7-aminoheptanoate to N7-acetyl-7-aminoheptanal (NADPH consumption, absorbance at 340 nm); settings: purified enzyme enhanced by the gene product of sfp, 2 mM N7-acetyl-7-aminoheptanoate, 1 mM ATP, 1 mM NADPH, pH=7.5, room temperature, 20 min; against the empty vector control; FIG. 12
Experimental: The activity of each of the N-terminal His-tagged carboxylate reductases of SEQ ID NOs: 3, 6, and 7 (see Examples 4, and FIGS. 7B, 7E, and 7F) for converting N7-acetyl-7-aminoheptanoate to N7-acetyl-7-aminoheptanal was assayed in triplicate in a buffer composed of a final concentration of 50 mM HEPES buffer (pH=7.5), 2 mM N7-acetyl-7-aminoheptanoate, 10 mM MgCl2, 1 mM ATP, and 1 mM NADPH. The assays were initiated by adding purified carboxylate reductase and phosphopantetheine transferase or the empty vector control to the assay buffer containing the N7-acetyl-7-aminoheptanoate then incubated at room temperature for 20 min. The consumption of NADPH was monitored by absorbance at 340 nm.

[2] = Thioesterase enzyme activity assay, pimeloyl-CoA to pimelate (release of Coenzyme A, Ellman's reagent, absorbance at 412 nm); settings: 667 μM pimeloyl-CoA, 0.8 μM enzyme, pH=7.4, 37° C., 20 min; compared to the empty vector control; FIG. 8
Experimental: A sequence encoding an N-terminal His tag was added to the tesB gene from Escherichia coli that encodes a thioesterase (SEQ ID NO 1, see FIG. 7A), such that an N-terminal HIS tagged thioesterase could be produced. The modified tesB gene was cloned into a pET15b expression vector under control of the T7 promoter. The expression vector was transformed into a BL21[DE3] E. coli host. The resulting recombinant E. coli strain was cultivated at 37° C. in a 500 mL shake flask culture containing 50 mL Luria Broth (LB) media and antibiotic selection pressure, with shaking at 230 rpm. The culture was induced overnight at 17° C. using 0.5 mM IPTG.
The pellet from the induced shake flask culture was harvested via centrifugation. The pellet was resuspended and lysed in Y-Per™ solution (ThermoScientific, Rockford, Ill.). The cell debris was separated from the supernatant via centrifugation. […]
The enzyme activity assay was performed in triplicate in a buffer composed of 50 mM phosphate buffer (pH=7.4), 0.1 mM Ellman's reagent, and 667 μM of pimeloyl-CoA (as substrate). […] The release of Coenzyme A was monitored by absorbance at 412 nm. The absorbance associated with the substrate only control, which contained boiled enzyme, was subtracted from the active enzyme assay absorbance and compared to the empty vector control.

[3] = Carboxylate reductase activity assay, pimelate to pimelate semialdehyde (NADPH consumption, absorbance at 340 nm); settings: purified enzyme enhanced by the gene product of sfp, 2 mM pimelate, 1 mM ATP, 1 mM NADPH, pH=7.5, room temperature, 20 min; against the empty vector control; FIG. 10
Experimental: A sequence encoding a HIS-tag was added to the genes from Segniliparus rugosus and Segniliparus rotundus that encode the carboxylate reductases of SEQ ID NOs: 4 and 7, respectively (see FIGS. 7C and 7F), such that N-terminal HIS tagged carboxylate reductases could be produced. Each of the modified genes was cloned into a pET Duet expression vector along with a sfp gene encoding a HIS-tagged phosphopantetheine transferase from Bacillus subtilis, both under the T7 promoter. Each expression vector was transformed into a BL21[DE3] E. coli host and the resulting recombinant E. coli strains were cultivated at 37° C. in a 250 mL shake flask culture containing 50 mL LB media and antibiotic selection pressure, with shaking at 230 rpm. Each culture was induced overnight at 37° C. using an auto-induction media.
The pellet from each induced shake flask culture was harvested via centrifugation. Each pellet was resuspended and lysed via sonication, and the cell debris was separated from the supernatant via centrifugation. […]
Enzyme activity assays (i.e., from pimelate to pimelate semialdehyde) were performed in triplicate in a buffer composed of a final concentration of 50 mM HEPES buffer (pH=7.5), 2 mM pimelate, 10 mM MgCl2, 1 mM ATP and 1 mM NADPH. […] The consumption of NADPH was monitored by absorbance at 340 nm.

B1: SEQ ID NO 6: Mycobacterium massiliense carboxylate reductase, Genbank Accession No. EIV11143.1 (protein)
chain: MTNETNPQQEQLSRRIESLRESDPQFRAAQPDPAVAEQVLRPGLHLSEAIAALMTGYAERPALGERARELVIDQDGRTTLRLLPRFDTTTYGELWSRTTSVAAAWHHDATHPVKAGDLVATLGFTSIDYTVLDLAIMILGGVAVPLQTSAPASQWTTILAEAEPNTLAVSIELIGAAMESVRATPSIKQVVVFDYTPEVDDQREAFEAASTQLAGTGIALETLDAVIARGAALPAAPLYAPSAGDDPLALLIYTSGSTGAPKGAMHSENIVRRWWIREDVMAGTENLPMIGLNFMPMSHIMGRGTLTSTLSTGGTGYFAASSDMSTLFEDMELIRPTALALVPRVCDMVFQRFQTEVDRRLASGDTASAEAVAAEVKADIRDNLFGGRVSAVMVGSAPLSEELGEFIESCFELNLTDGYGSTEAGMVFRDGIVQRPPVIDYKLVDVPELGYFSTDKPHPRGELLLKTDGMFLGYYKRPEVTASVFDADGFYMTGDIVAELAHDNIEIIDRRNNVLKLSQGEFVAVATLEAEYANSPVVHQIYVYGSSERSYLLAVVVPTPEAVAAAKGDAAALKTTIADSLQDIAKEIQLQSYEVPRDFIIEPQPFTQGNGLLTGIAKLARPNLKAHYGPRLEQMYAEIAEQQAAELRALHGVDPDKPALETVLKAAQALLGVSSAELAADAHFTDLGGDSLSALSFSDLLRDIFAVEVPVGVIVSAANDLGGVAKFVDEQRHSGGTRPTAETVHGAGHTEIRAADLTLDKFIDEATLHAAPSLPKAAGIPHTVLLTGSNGYLGHYLALEWLERLDKTDGKLIVIVRGKNAEAAYGRLEEAFDTGDTELLAHFRSLADKHLEVLAGDIGDPNLGLDADTWQRLADTVDVIVHPAALVNHVLPYNQLFGPNVVGTAEIIKLAITTKIKPVTYLSTVAVAAYVDPTTFDEESDIRLISAVRPIDDGYANGYGNAKWAGEVLLREAHDLCGLPVAVFRSDMILAHSRYTGQLNVPDQFTRLILSLIATGIAPGSFYQAQTTGERPLAHYDGLPGDFTAEAITTLGTQVPEGSEGFVTYDCVNPHADGISLDNFVDWLIEAGYPIARIDNYTEWFTRFDTAIRGLSEKQKQHSLLPLLHAFEQPSAAENHGVVPAKRFQHAVQAAGIGPVGQDGTTDIPHLSRRLIVKYAKDLEQLGLL
modifications: Mycobacterium massiliense
[1]
  carboxylate reductase activity for converting N7-acetyl-7-aminoheptanoate to N7-acetyl-7-aminoheptanal: accepted N7-acetyl-7-aminoheptanoate as substrate

B2: tesB: Escherichia coli thioesterase encoded by tesB, GenBank Accession No. AAA24665.1 (protein, listed as Escherichia coli)
chain: MSQALKNLLTLLNLEKIEEGLFRGQSEDLGLRQVFGGQVVGQALYAAKETVPEERLVHSFHSYFLRPGDSKKPIIYDVETLRDGNSFSARRVAAIQNGKPIFYMTASFQAPEAGFEHQKTMPSAPAPDGLPSETQIAQSLAHLLPPVLKDKFICDRPLEVRPVEFHNPLKGHVAEPHRQVWIRANGSVPDDLRVHQYLLGYASDLNFLPVALQPHGIGFLEPGIQIATIDHSMWFHRPFNLNEWLLYSVESTSASSARGFVRGEFYTQDGVLVASTVQEGVMRNHN
[2]
  thioesterase activity for converting pimeloyl-CoA to pimelate: accepted pimeloyl-CoA as substrate

B3: SEQ ID NO 4: Segniliparus rugosus carboxylate reductase, Genbank Accession No. EFV11917.1 (protein, listed as Segniliparus rugosus)
chain: MGDGEERAKRFFQRIGELSATDPQFAAAAPDPAVVEAVSDPSLSFTRYLDTLMRGYAERPALAHRVGAGYETISYGELWARVGAIAAAWQADGLAPGDFVATVGFTSPDYVAVDLAAARSGLVSVPLQAGASLAQLVGILEETEPKVLAASASSLEGAVACALAAPSVQRLVVFDLRGPDASESAADERRGALADAEEQLARAGRAVVVETLADLAARGEALPEAPLFEPAEGEDPLALLIYTSGSTGAPKGAMYSQRLVSQLWGRTPVVPGMPNISLHYMPLSHSYGRAVLAGALSAGGTAHFTANSDLSTLFEDIALARPTFLALVPRVCEMLFQESQRGQDVAELRERVLGGRLLVAVCGSAPLSPEMRAFMEEVLGFPLLDGYGSTEALGVMRNGIIQRPPVIDYKLVDVPELGYRTTDKPYPRGELCIRSTSLISGYYKRPEITAEVFDAQGYYKTGDVMAEIAPDHLVYVDRSKNVLKLSQGEFVAVAKLEAAYGTSPYVKQIFVYGNSERSFLLAVVVPNAEVLGARDQEEAKPLIAASLQKIAKEAGLQSYEVPRDFLIETEPFTTQNGLLSEVGKLLRPKLKARYGEALEARYDEIAHGQADELRALRDGAGQRPVVETVVRAAVAISGSEGAEVGPEANFADLGGDSLSALSLANLLHDVFEVEVPVRIIIGPTASLAGIAKHIEAERAGASAPTAASVHGAGATRIRASELTLEKFLPEDLLAAAKGLPAADQVRTVLLTGANGWLGRFLALEQLERLARSGQDGGKLICLVRGKDAAAARRRIEETLGTDPALAARFAELAEGRLEVVPGDVGEPKFGLDDAAWDRLAEEVDVIVHPAALVNHVLPYHQLFGPNVVGTAEIIRLAITAKRKPVTYLSTVAVAAGVEPSSFEEDGDIRAVVPERPLGDGYANGYGNSKWAGEVLLREAHELVGLPVAVFRSDMILAHTRYTGQLNVPDQFTRLVLSLLATGIAPKSFYQQGAAGERQRAHYDGIPVDFTAEAITTLGAEPSWFDGGAGFRSFDVFNPHHDGVGLDEFVDWLIEAGHPISRIDDHKEWFARFETAVRGLPEAQRQHSLLPLLRAYSFPHPPVDGSVYPTGKFQGAVKAAQVGSDHDVPHLGKALIVKYADDLKALGLL
[3]
  carboxylate reductase activity for converting pimelate to pimelate semialdehyde: accepted pimelate as substrate
